Experimental data taken from the supplement of paper PMC9112550, “Optimization of the antimicrobial peptide Bac7 by deep mutational scanning” (BMC Biology, 2022).

tested on: Escherichia coli TOP10; test: shrunken log2 fold change of peptide-encoding DNA abundance (4.5 h post-induction vs induction); higher = less antimicrobial activity (less host growth inhibition); settings: time post-induction: 4.5 h; library: site-saturation at positions 5, 18, 19, 20
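Also: peptides expressed intracellularly from a pBAD plasmid library in pooled LB shake-flask culture, induced with 0.3% L-arabinose, DNA abundance read by NGS, three biological replicates, DESeq2 with apeglm shrinkage.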

In order of rising “shrunken log2 fold change” value:
1. RRIRCRPPRLPRPRPRPFYMPRP  -1.15
2. RRIRCRPPRLPRPRPRPHYYPRP  -1.07
3. RRIRCRPPRLPRPRPRPHNGPRP  -1.03
4. RRIRCRPPRLPRPRPRPIHYPRP  -0.95
5. RRIRCRPPRLPRPRPRPFNYPRP  -0.836
6. RRIRCRPPRLPRPRPRPFYDPRP  -0.826
7. RRIRCRPPRLPRPRPRPFNFPRP  -0.813
8. RRIRCRPPRLPRPRPRPFYAPRP  -0.813
9. RRIRCRPPRLPRPRPRPIVYPRP  -0.788
10. RRIRCRPPRLPRPRPRPIIFPRP  -0.726
11. RRIRCRPPRLPRPRPRPFFNPRP  -0.687
12. RRIRCRPPRLPRPRPRPFITPRP  -0.639
13. RRIRCRPPRLPRPRPRPDFYPRP  -0.629
14. RRIRCRPPRLPRPRPRPFIAPRP  -0.613
15. RRIRCRPPRLPRPRPRPFSHPRP  -0.608
16. RRIRCRPPRLPRPRPRPHKHPRP  -0.58
17. RRIRCRPPRLPRPRPRPILHPRP  -0.575
18. RRIRCRPPRLPRPRPRPHTNPRP  -0.564
19. RRIRCRPPRLPRPRPRPDWEPRP  -0.524
20. RRIRCRPPRLPRPRPRPFFLPRP  -0.512
21. RRIRCRPPRLPRPRPRPFAMPRP  -0.495
22. RRIRCRPPRLPRPRPRPDNFPRP  -0.489
23. RRIRCRPPRLPRPRPRPISHPRP  -0.486
24. RRIRCRPPRLPRPRPRPDIHPRP  -0.468
25. RRIRCRPPRLPRPRPRPFNRPRP  -0.466
26. RRIRCRPPRLPRPRPRPHTAPRP  -0.457
27. RRIRCRPPRLPRPRPRPIYVPRP  -0.447
28. RRIRCRPPRLPRPRPRPHCFPRP  -0.429
29. RRIRCRPPRLPRPRPRPITRPRP  -0.429
30. RRIRCRPPRLPRPRPRPDMGPRP  -0.406
31. RRIRCRPPRLPRPRPRPFMQPRP  -0.402
32. RRIRCRPPRLPRPRPRPHWSPRP  -0.395
33. RRIRCRPPRLPRPRPRPEYSPRP  -0.38
34. RRIRCRPPRLPRPRPRPDFSPRP  -0.377
35. RRIRCRPPRLPRPRPRPHTVPRP  -0.371
36. RRIRCRPPRLPRPRPRPHQDPRP  -0.365
37. RRIRCRPPRLPRPRPRPIKWPRP  -0.343
38. RRIRCRPPRLPRPRPRPHMTPRP  -0.331
39. RRIRCRPPRLPRPRPRPHSEPRP  -0.319
40. RRIRCRPPRLPRPRPRPIKNPRP  -0.311
41. RRIRCRPPRLPRPRPRPFDMPRP  -0.309
42. RRIRCRPPRLPRPRPRPHDHPRP  -0.307
43. RRIRCRPPRLPRPRPRPFPIPRP  -0.305
44. RRIRCRPPRLPRPRPRPFKPPRP  -0.302
45. RRIRCRPPRLPRPRPRPFTRPRP  -0.291
46. RRIRCRPPRLPRPRPRPFRYPRP  -0.29
47. RRIRCRPPRLPRPRPRPFLSPRP  -0.28
48. RRIRCRPPRLPRPRPRPHHQPRP  -0.278
49. RRIRCRPPRLPRPRPRPFMMPRP  -0.266
50. RRIRCRPPRLPRPRPRPFPQPRP  -0.265
51. RRIRCRPPRLPRPRPRPFIRPRP  -0.249
52. RRIRCRPPRLPRPRPRPICFPRP  -0.241
53. RRIRCRPPRLPRPRPRPGTLPRP  -0.237
54. RRIRCRPPRLPRPRPRPINFPRP  -0.235
55. RRIRCRPPRLPRPRPRPIVMPRP  -0.235
56. RRIRCRPPRLPRPRPRPHRLPRP  -0.227
57. RRIRCRPPRLPRPRPRPIEIPRP  -0.223
58. RRIRCRPPRLPRPRPRPEIVPRP  -0.221
59. RRIRCRPPRLPRPRPRPGGQPRP  -0.218
60. RRIRCRPPRLPRPRPRPDSQPRP  -0.203
61. RRIRCRPPRLPRPRPRPFSKPRP  -0.203
62. RRIRCRPPRLPRPRPRPIQVPRP  -0.191
63. RRIRCRPPRLPRPRPRPHVLPRP  -0.172
64. RRIRCRPPRLPRPRPRPEYGPRP  -0.167
65. RRIRCRPPRLPRPRPRPESSPRP  -0.16
66. RRIRCRPPRLPRPRPRPHGGPRP  -0.154
67. RRIRCRPPRLPRPRPRPISNPRP  -0.145
68. RRIRCRPPRLPRPRPRPELNPRP  -0.137
69. RRIRCRPPRLPRPRPRPEMSPRP  -0.129
70. RRIRCRPPRLPRPRPRPIGMPRP  -0.121
71. RRIRCRPPRLPRPRPRPHGMPRP  -0.114
72. RRIRCRPPRLPRPRPRPDRVPRP  -0.112
73. RRIRCRPPRLPRPRPRPGKLPRP  -0.111
74. RRIRCRPPRLPRPRPRPDVMPRP  -0.101
75. RRIRCRPPRLPRPRPRPIGAPRP  -0.0968
76. RRIRCRPPRLPRPRPRPFEEPRP  -0.0957
77. RRIRCRPPRLPRPRPRPIRQPRP  -0.0914
78. RRIRCRPPRLPRPRPRPGSHPRP  -0.0784
79. RRIRCRPPRLPRPRPRPFGKPRP  -0.0592
80. RRIRCRPPRLPRPRPRPIKGPRP  -0.0586
81. RRIRCRPPRLPRPRPRPEYFPRP  -0.0582
82. RRIRCRPPRLPRPRPRPFLDPRP  -0.0521
83. RRIRCRPPRLPRPRPRPDTAPRP  -0.051
84. RRIRCRPPRLPRPRPRPFKQPRP  -0.0402
85. RRIRCRPPRLPRPRPRPEHCPRP  -0.0294
86. RRIRCRPPRLPRPRPRPHQTPRP  -0.0284
87. RRIRCRPPRLPRPRPRPHGSPRP  -0.0281
88. RRIRCRPPRLPRPRPRPENDPRP  -0.0268
89. RRIRCRPPRLPRPRPRPFFEPRP  -0.0214
90. RRIRCRPPRLPRPRPRPERMPRP  -0.015
91. RRIRCRPPRLPRPRPRPEVTPRP  -0.0149
92. RRIRCRPPRLPRPRPRPFMNPRP  -0.00951
93. RRIRCRPPRLPRPRPRPEWWPRP  -0.00726
94. RRIRCRPPRLPRPRPRPDPNPRP  -0.00486
95. RRIRCRPPRLPRPRPRPIPGPRP  -0.000108
96. RRIRCRPPRLPRPRPRPGTIPRP  0.00164
97. RRIRCRPPRLPRPRPRPFWDPRP  0.00555
98. RRIRCRPPRLPRPRPRPDTTPRP  0.00602
99. RRIRCRPPRLPRPRPRPDMMPRP  0.00614
100. RRIRCRPPRLPRPRPRPIMGPRP  0.00854
101. RRIRCRPPRLPRPRPRPDSGPRP  0.0093
102. RRIRCRPPRLPRPRPRPGERPRP  0.01
103. RRIRCRPPRLPRPRPRPHGVPRP  0.015
104. RRIRCRPPRLPRPRPRPDSEPRP  0.0197
105. RRIRCRPPRLPRPRPRPEEWPRP  0.0214
106. RRIRCRPPRLPRPRPRPIMCPRP  0.0272
107. RRIRCRPPRLPRPRPRPFGGPRP  0.0285
108. RRIRCRPPRLPRPRPRPERLPRP  0.0345
109. RRIRCRPPRLPRPRPRPIANPRP  0.0422
110. RRIRCRPPRLPRPRPRPEYMPRP  0.0436
111. RRIRCRPPRLPRPRPRPIWEPRP  0.0488
112. RRIRCRPPRLPRPRPRPELHPRP  0.0685
113. RRIRCRPPRLPRPRPRPETFPRP  0.07
114. RRIRCRPPRLPRPRPRPERSPRP  0.0846
115. RRIRCRPPRLPRPRPRPDLSPRP  0.0851
116. RRIRCRPPRLPRPRPRPGENPRP  0.0862
117. RRIRCRPPRLPRPRPRPDRAPRP  0.0901
118. RRIRCRPPRLPRPRPRPDGQPRP  0.101
119. RRIRCRPPRLPRPRPRPEDNPRP  0.11
120. RRIRCRPPRLPRPRPRPEHGPRP  0.11
121. RRIRCRPPRLPRPRPRPIRRPRP  0.119
122. RRIRCRPPRLPRPRPRPGVLPRP  0.121
123. RRIRCRPPRLPRPRPRPEINPRP  0.122
124. RRIRCRPPRLPRPRPRPFKSPRP  0.122
125. RRIRCRPPRLPRPRPRPGKDPRP  0.124
126. RRIRCRPPRLPRPRPRPIGFPRP  0.129
127. RRIRCRPPRLPRPRPRPGGFPRP  0.146
128. RRIRCRPPRLPRPRPRPGVVPRP  0.147
129. RRIRCRPPRLPRPRPRPEDDPRP  0.159
130. RRIRCRPPRLPRPRPRPDLFPRP  0.162
131. RRIRCRPPRLPRPRPRPECFPRP  0.165
132. RRIRCRPPRLPRPRPRPGLDPRP  0.191
133. RRIRCRPPRLPRPRPRPIEFPRP  0.191
134. RRIRCRPPRLPRPRPRPGAVPRP  0.202
135. RRIRCRPPRLPRPRPRPGNGPRP  0.217
136. RRIRCRPPRLPRPRPRPIFWPRP  0.235
137. RRIRCRPPRLPRPRPRPDYCPRP  0.25
138. RRIRCRPPRLPRPRPRPEGPPRP  0.261
139. RRIRCRPPRLPRPRPRPGWHPRP  0.269
140. RRIRCRPPRLPRPRPRPGRQPRP  0.285
141. RRIRCRPPRLPRPRPRPGPMPRP  0.326
142. RRIRCRPPRLPRPRPRPEQLPRP  0.407
143. RRIRCRPPRLPRPRPRPGMAPRP  0.418
144. RRIRCRPPRLPRPRPRPGLGPRP  0.512
145. RRIRCRPPRLPRPRPRPECAPRP  0.543
146. RRIRCRPPRLPRPRPRPGCRPRP  0.569
147. RRIRCRPPRLPRPRPRPGVAPRP  0.632
148. RRIRCRPPRLPRPRPRPEGWPRP  0.855
149. RRIRCRPPRLPRPRPRPFLQPRP  1.41
150. RRIRCRPPRLPRPRPRPHLYPRP  1.42
